Source: paper PMC9451086

Molecular target: Importin-α1 (UniProt P52292)
Experiment: proximity ligation assay
Details: PLC3 cells electroporated with HEV-p6 RNA, 18 h.p.e; 12 fields of cells, mean ± S.D.; parent: est. 5.3; read off a plot

| Substance | response [spot/cell] |
| --- | --- |
| HEV ORF2 capsid protein, wild type (genotype 3 Kernow C-1 p6 strain) P25R; S26R; G27R | 4.8 |
| HEV ORF2 capsid protein, wild type (genotype 3 Kernow C-1 p6 strain) R28A; R29A; R30A; R32A; R33A | 1.1 |
